For 3 molecules, Kd results are on record in patent US20200339648A1 (University of Washington, published 2020).

Assay [1] concerns the target T1, mouse IL-2 receptor β subunit (mIL-2Rβ) (mouse, UniProt P16297 27-240, biotin on the C-terminal biotin acceptor peptide).
T1 construct: extracellular domain; Biotinylated form for SPR; also called MmIL-2Rβ; murine IL-2Rβ
T1 sequence: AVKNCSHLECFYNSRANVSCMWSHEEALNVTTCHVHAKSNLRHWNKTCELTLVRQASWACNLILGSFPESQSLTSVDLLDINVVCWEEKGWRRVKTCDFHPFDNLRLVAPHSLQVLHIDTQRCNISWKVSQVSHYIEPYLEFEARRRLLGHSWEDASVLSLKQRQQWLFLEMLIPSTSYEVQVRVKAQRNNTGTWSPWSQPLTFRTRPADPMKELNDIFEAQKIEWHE
Briefly: SPR, equilibrium titration; biotinylated IL-2Rβ on streptavidin chip. Background: In SPR one partner is held on a chip, and binding of the other changes the refractive index at the surface.

For assay [2], the target named is T2, human IL-2 receptor β subunit (hIL-2Rβ) (human, UniProt P14784 27-240, biotin on the C-terminal biotin acceptor peptide).
T2 construct: Biotinylated and immobilised on streptavidin; also called HsIL-2Rβ; human IL-2Rβ
T2 sequence: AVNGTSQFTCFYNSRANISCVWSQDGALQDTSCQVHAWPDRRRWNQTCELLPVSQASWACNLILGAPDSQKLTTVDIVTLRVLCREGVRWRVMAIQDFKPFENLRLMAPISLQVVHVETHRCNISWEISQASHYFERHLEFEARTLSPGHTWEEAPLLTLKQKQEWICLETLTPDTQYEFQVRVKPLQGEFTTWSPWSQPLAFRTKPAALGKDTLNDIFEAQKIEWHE
The assay is described as above.

Assay [3] concerns the target T3, human IL-2 receptor βγc heterodimer (hIL-2Rβγc), soluble (human, UniProt P14784 27-240; P31785 23-254, biotin on the C-terminal biotin acceptor peptide).
T3 construct: also called HsIL-2Rβγc; hIL-2Rβνc
T3 sequence 1: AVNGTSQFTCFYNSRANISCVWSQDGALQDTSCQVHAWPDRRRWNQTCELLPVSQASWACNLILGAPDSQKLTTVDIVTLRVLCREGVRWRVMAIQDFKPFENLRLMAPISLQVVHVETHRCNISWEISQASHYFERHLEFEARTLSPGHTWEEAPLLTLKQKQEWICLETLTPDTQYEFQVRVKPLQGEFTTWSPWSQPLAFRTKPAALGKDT
T3 sequence 2: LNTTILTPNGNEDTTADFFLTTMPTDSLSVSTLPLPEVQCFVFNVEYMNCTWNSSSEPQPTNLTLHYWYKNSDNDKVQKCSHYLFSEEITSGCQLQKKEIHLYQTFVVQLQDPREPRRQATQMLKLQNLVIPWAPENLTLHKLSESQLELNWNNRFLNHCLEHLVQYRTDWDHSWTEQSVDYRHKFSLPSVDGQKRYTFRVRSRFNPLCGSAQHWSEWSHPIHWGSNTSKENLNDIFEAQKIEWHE
Nature of the assay: SPR, equilibrium titration; IL-2Rγ on streptavidin chip, saturating IL-2Rβ in solution.

The target in assay [4] is T4, mouse IL-2 receptor βγc heterodimer (mIL-2Rβγc), soluble (mouse, UniProt P16297 27-240; P34902 23-263, biotin on the C-terminal biotin acceptor peptide).
T4 construct: extracellular domain; also called MmIL-2Rβγc; mIL-2Rβνc
T4 sequence 1: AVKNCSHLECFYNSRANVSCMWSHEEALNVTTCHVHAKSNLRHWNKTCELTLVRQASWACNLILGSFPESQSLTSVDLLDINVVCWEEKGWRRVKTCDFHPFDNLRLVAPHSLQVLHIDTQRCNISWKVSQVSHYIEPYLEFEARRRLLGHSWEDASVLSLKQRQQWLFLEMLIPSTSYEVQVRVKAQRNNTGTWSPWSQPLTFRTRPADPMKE
T4 sequence 2: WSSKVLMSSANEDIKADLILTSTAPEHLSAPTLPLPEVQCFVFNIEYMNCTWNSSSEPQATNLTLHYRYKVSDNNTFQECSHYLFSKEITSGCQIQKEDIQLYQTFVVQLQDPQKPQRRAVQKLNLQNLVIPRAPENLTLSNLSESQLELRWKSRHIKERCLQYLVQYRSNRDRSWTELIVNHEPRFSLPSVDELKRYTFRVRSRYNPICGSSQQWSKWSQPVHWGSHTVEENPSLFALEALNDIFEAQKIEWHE
Described as above.

B1: G1_neo2_40_1F (designed binder)
chain: STKKTQLLAEHALLDALMMLNLLPEPNEKLNRIITTMQSWIFTGKIDGDGAQELAKEVEELEQEHEKRGIDVEDYASNLKVILLELA
notes: also called G1_ne02_40_1F
In general, Kd refers to the concentration at which binding is half-saturated. Read a high Kd as a looser complex. Take B1: the dissociation constant (Kd) in assay [1] came out at 486 nM; in assay [2], 2.6 nM; in assay [3] it was 2.3 nM; in assay [4], 7.9 nM.

B2: mouse interleukin-2 (mIL-2) (ligand, UniProt P04351 21-169, looked up)
chain: APTSSSTSSSTAEAQQQQQQQQQQQQHLEQLLMDLQELLSRMENYRNLKLPRMLTFKFYLPKQATELKDLQCLEDELGPLRHVLDLTQSKSFQLEDAENFISNIRVTVVKLKGSDNTFECQFDDESATVVDFLRRWIAFCQSIISTSPQ
notes: range 1-149; Baculovirus expression for SPR; also called MmIL-2; mouse IL-2
In the case of B2, the Kd in assay [1] is 1500 nM; in assay [2] it was 4950 nM; in assay [3], 8030 nM; in assay [4] it was 126 nM.

B3: G2_neo2_40_1F_dsn36 (designed binder)
chain: PKKKIQLLAEHALLDALMILNIVKTNSQNAEEKLEDYASNVEVILEEIARLMESGDQKDEAEKAKRMKEWMKRIKTTASEDEQEEMANRIITLLQSWIFS
notes: E. coli, N-terminal 6xHis tag and thrombin site
B3: the Kd in assay [1] worked out at 2430 nM; in assay [2], 27.6 nM; in assay [3] it was 114 nM; in assay [4] it was 568 nM.
